Measured values from patent publication US20220347267A1, “METHODS TO IMPROVE PATIENT RESPONSE TO IMMUNE CHECKPOINT INHIBITORS AND FUNCTIONAL TESTS TO PREDICT RESPONSE” (Biomarker Strategies, LLC, priority 2019, published 2022).

Legend:
Assay type in all cases: cell-based, human
H1299 cells = experiment: PD-L1 mRNA one step RT-qPCR, IFNγ treatment; details: 10 ng/mL IFNγ for 24h, 2^-ΔΔCt normalized by GAPDH
Experimental: (§1) Additionally, the presence, abundance and ratio of different PD-L1 mRNA forms can be used to predict response. As way of example, PD-L1 mRNA were measured using primers amplifying within exon 3-4 (extracellular region of the transcribed protein that interacts with PD1). Other amplicons detecting the same or other forms can be used readily. For example, amplicons corresponding to the transmembrane and cytoplasmic tail to confirm full length plasma membrane bound protein is transcribed, or regions overlapping with either PD1 or anti-PD-L1 binding sites. Five cell lines (H460, H1299, H1650, H2126 and SKMES1) were treated with vehicle or 10 ng/mL IFNγ for 24h. More complex sample types, including cells isolated from solid tumors from preclinical and clinical cancers be used. Other time points, including those as early as 1h for IRF or 4h for PD-L1, can be readily used. RNA was isolated from the cells using an NEB kit (Cat #T2010) per the manufacturer's instructions. Isolated RNA was estimated using a NanoDrop […] and checked for its quality by checking the 260/280 ratio. RNA concentration was brought to 40 ng/uL in all the samples to take equal quantity for further steps of RT and real time PCR. One step RT-qPCR was performed using a Power SYBR Green RNA to Ct One step kit (Cat #4931198) as per the manufacturer's instructions. A 200 ng RNA template was taken for total 20 uL reaction per well in 96 well PCR microplate for Roche 480 Light cycler. The following primer pairs (Sigma) were used for PD-L1 and GAPDH and were used at a concentration in the reaction mixture of 400 nM:
(§2) A Roche 480 Light cycler was used for performing the one step real time PCR. Data was analyzed using 2^-ΔΔCt method normalized by GAPDH for relative levels. Alternative housekeeper genes may be readily used.

H2126 cells = experiment: PD-L1 mRNA one step RT-qPCR, IFNγ treatment; details: 10 ng/mL IFNγ for 24h, normalized by GAPDH
Experimental: as §1, §2

SKMES1 cells = experiment: PD-L1 mRNA one step RT-qPCR, IFNγ treatment; details: 10 ng/mL IFNγ for 24h, normalized by GAPDH
Experimental: as §1, §2

BT549 cells = experiment: PD-L1 western blot after modulators (EM and MTAs); details: Breast BT549, 30 minutes, 3 hours, 24 hours
Text: (§3) Cell lines were acquired from ATCC, Sigma, or DSMZ. Human non-small cell lung carcinoma (NSCLC) cell lines H292 (ATCC no. CRL-1848.), H1299 (ATCC no. CRL-5803), H520 (ATCC no. CRL-5811), CALU6 (ATCC no. HTB-56), H1975 (ATCC no. CRL-5908), H460 (ATCC no. HTB-177), H2126 (ATCC no. CCL-256), H1650 (ATCC no. CRL-5883), and H2087 (ATCC no. CRL-5922) were used for this experiment along with head and neck squamous cell carcinoma (HNSCC) cell lines BHY (DSMZ ACC 404), CAL27 (ATCC no. CRL-2095), KYSE410 (Sigma), and A253 (ATCC no. HTB-41), melanoma cell lines A375 (ATCC no. CRL-1619), COL0853 (Sigma), and MM127 (Sigma) pancreatic cancer cell lines BXPC3 (ATCC no. CRL-1687), colorectal cancer cell lines […], HCT116 (ATCC no. CCL-247EMT), and breast cancer cell lines BT549 (ATCC no. HTB-122), BT20 (ATCC no. HTB-19), and T47D (ATCC no. HTB-133). Cells were maintained in manufacturer-recommended conditions at 37° C. inside humidified 5% CO2 incubators. Sub-cultivation and harvesting for all cell lines were performed using Accutase (GIBCO Life Technologies; cat. no. A1110501) at 37° C. for 10 minutes. Cell viability was measured using trypan blue exclusion staining in conjunction with the Countess II Automated Cell Counter (Thermo Fischer Scientific; cat. no. AMQAX1000). Measurements were made in duplicate and the average number of viable cells was recorded prior to experiments.
(§4) T7039), and IL-10 (50 ng/ml; Sigma Aldrich cat. no. SRP3071) were administered to cell lines for various times including 30 minutes, 3 hour, and 24 hour time intervals prior to cell lysis and protein extraction.
(§5) To determine the effects of the aforementioned molecules on the modulation of PD-L1, we selected various NSCLC, HNSCC, breast cancer, melanoma, colorectal cancer, and pancreatic cancer cell lines as examples. Other diseases or cell lines could be used readily as could more complex samples such as cells isolated from xenografts and clinical samples. Cells were plated, for three different time points (30 minutes, 3 hours, and 24 hours), inside 6-well petri dishes with 2 mL of appropriate medium. Plates were incubated for 24 hours in 5% CO2 incubators at 37° C. After 24 hours, each 6-well plate was washed with PBS (Gibco Life Technologies, cat. no. 10010023) followed by fresh media being added along with each cell line's vehicle control or appropriate modulator for each specific time point, and were placed in CO2 incubators until their modulation time point was reached. Other conditions can be readily used, such as processing on automated systems such as SnapPath. At the end of each time point, while keeping plates on ice, cell lysis was conducted by aspirating culture medium from each plate, washing of each plate three times with 5 ml of cold PBS (Gibco Life Technologies, cat. no. 10010023) and culminated with the addition of cold 1× lysis buffer containing (Cell Signaling, cat. no. 9803 S) protease inhibitor cocktail (Cell Signaling, cat. no. 5871S), phosphatase inhibitor cocktail (Cell Signaling, cat. no. 5870S), and PMSF (Fisher Scientific, cat. no. ICN19538101). Plates were then placed on ice for ten minutes, swirling each plate intermittently. Aliquots of protein lysates were prepared and then stored at −80° C. until protein quantification and Western blot analysis was to be conducted. The protein concentration of each lysate was analyzed by using the Pierce 660 Protein Assay Reagent (Thermo Fisher Scientific, cat. no. 22660) and testing of each sample was conducted in duplicate. Two μg of protein was then loaded per lane into 10% Midi-PROTEAN TGX Precast Gels (Bio Rad, cat. no. 5671034) along with Kaleidoscope Prestained Protein Standard (BioRad, cat. no. 1610375) which ran at 220V for 45 minutes. Proteins were transferred to mini-PVDF membranes (BioRad, cat. no. 1704156) in 3 minutes using the Trans-Blot Turbo Transfer System (BioRad, cat. no. 1704150EDU).

H1650 cells = experiment: PD-L1 western blot after modulators (EM and MTAs); details: NSCLC H1650, 30 minutes, 3 hours, 24 hours
Text: as §3, §4, §5

H292 cells = experiment: PD-L1 western blot after modulators (EM and MTAs); details: NSCLC H292, 30 minutes, 3 hours, 24 hours
Text: as §3, §4, §5

H460 cells = experiment: PD-L1 western blot after modulators (EM and MTAs); details: NSCLC H460, 30 minutes, 3 hours, 24 hours
Text: as §3, §4, §5

B1: IFNγ: human IFNγ, modulator (10 ng/ml; Sigma Aldrich) (protein, UniProt P01579 24-161, looked up)
Interferon gamma: QDPYVKEAENLKKYFNAGHSDVADNGTLFLGILKNWKEESDRKIMQSQIVSFYFKLFKNFKDDQSIQKSVETIKEDMNVKFFNSNKKKRDDFEKLTNYSVTDLNVQRKAIHELIQVMAELSPAAKTGKRKRSQMLFRG
For B1, the “relative increase of PD-L1 mRNA upon IFNγ exposure” value (H1299 cells) was 1.7 fold, the “change of PD-L1 mRNA upon IFNγ exposure” value (H2126 cells) was “decrease” and the “change of PD-L1 mRNA upon IFNγ exposure” value (SKMES1 cells) was “no change”. For the same molecule, the “PD-L1 Response” value (BT549 cells) was “Up”, the “PD-L1 Response” value (H1650 cells) was “Up” and the “PD-L1 Response” value (H292 cells) was “Up”. The “PD-L1 Response” value (H460 cells) was “Up”.
